The labels stand for the following.
B1: Haloalkane dehalogenase, D4Z2G1 (parent)
chain: MSLGAKPFGEKKFIEIKGRRMAYIDEGTGDPILFQHGNPTSSYLWRNIMPHCAGLGRLIACDLIGMGDSDKLDPSGPERYAYAEHRDYLDALWEALDLGDRVVLVVHDWGSALGFDWARRHRERVQGIAYMEAIAMPIEWADFPEQDRDLFQAFRSQAGEELVLQDNVFVEQVLPGLILRPLSEAEMAAYREPFLAAGEARRPTLSWPRQIPIAGTPADVVAIARDYAGWLSESPIPKLFINAEPGALTTGRMRDFCRTWPNQTEITVAGAHFIQEDSPDEIGAAIAAFVRRLRPA

Several values for one entry are separate records, joined by “and”; a condition that tells them apart may be missing. Equal entries are not always repeated.

The variants in the data set derive from B1. As to conditions: Sphingobium indicum (strain DSM 16413 / CCM 7287 / MTCC 6362 / UT26 / NBRC 101211 / UT26S); pH 7.5; Thermal; fluorescence; Na-Hepes 50 mM; reversible: no; structure 1MJ5; whole UniProt chain shown.

The results in this text go back to FireProtDB (doi:10.1002/cbic.201402128).

For orientation: Tm means the temperature at which the thermal transition is half complete. For Q35L, the Tm amounted to 48.5 °C and the “change of melting temperature, mutant - wild type (higher = more stable)” value (from here on “change of melting temperature, mutant”) is -2.5 °C.
For Q35V, in that order: 48.5 °C and -2.5 °C.
V106L: the Tm came out at 50.5 °C and the “change of melting temperature, mutant” value is -0.5 °C.
In the same order, the values of E26H are 50 °C and -1 °C.
In the case of E26V, the Tm was found to be 51 °C and the “change of melting temperature, mutant” value was found to be 0 °C.
In the same order, the values of E26Q are 51 °C and 0 °C.
In the same order, the values of A83N are 50 °C and -1 °C.
In the same order, the values of A83L are 51.5 °C and 0.5 °C.
For K6E, the Tm was determined as 51 °C and the “change of melting temperature, mutant” value stood at 0 °C.
For Q172K, in that order: 61.5 °C and 10.5 °C.
For A129V, in that order: 50 °C and -1 °C.
In the same order, the values of V106C G114C are 50 °C and 1 °C.
As to S41Q, the Tm is 49 °C and the “change of melting temperature, mutant” value is -2 °C.
As to Q275P, the Tm is 48 °C and the “change of melting temperature, mutant” value was -3 °C.
In the same order, the values of S183C E186C are 47 °C and -4 °C.
For D87L, in that order: 51.5 °C and 0.5 °C.
For D87K, in that order: 50 °C and -1 °C.
As to H51C G283C, the Tm was 48.5 °C and 46 °C; the “change of melting temperature, mutant” value is -2.5 °C and -3 °C.
In the case of V268C S278C, the Tm was 48.5 °C and 46 °C; the “change of melting temperature, mutant” value is -2.5 °C and -3 °C.
For the variant A185P, the Tm worked out at 50.5 °C and the “change of melting temperature, mutant” value was -0.5 °C.
In the same order, the values of C61P are 50.5 °C and -0.5 °C.
For A53L, in that order: 52 °C and 1 °C.
For A53K, in that order: 51 °C and 0 °C.
As for A271I, the Tm is 60.5 °C and the “change of melting temperature, mutant” value was 9.5 °C.
For T249M, the Tm worked out at 60.5 °C and the “change of melting temperature, mutant” value worked out at 9.5 °C.
For T249L, the Tm came out at 62.5 °C and the “change of melting temperature, mutant” value came to 11.5 °C.
As to T249V, the Tm was found to be 60 °C and the “change of melting temperature, mutant” value turned out to be 9 °C.
In the same order, the values of D68N are 50.5 °C and -0.5 °C.
In the case of E233T, the Tm was determined as 51.5 °C and the “change of melting temperature, mutant” value stood at 0.5 °C.
For A5L, in that order: 50 °C and -1 °C.
R254L: the Tm is 49.5 °C and the “change of melting temperature, mutant” value was -1.5 °C.
For A81E, in that order: 48 °C and -3 °C.
For A81N, in that order: 51 °C and 0 °C.
In the same order, the values of A81P are 48 °C and -3 °C.
A189F: the Tm came out at 51.5 °C and the “change of melting temperature, mutant” value is 0.5 °C.
For the variant E192L, the Tm was 51.5 °C and the “change of melting temperature, mutant” value is 0.5 °C.
Take E192K: the Tm came out at 54 °C and the “change of melting temperature, mutant” value stood at 3 °C.
For the variant R20C D70C, the melting temperature (Tm) is 45.5 °C and the “change of melting temperature, mutant” value is -3.5 °C.
In the same order, the values of D30E are 51 °C and 0 °C.
On to A197P, for which the Tm is 52.5 °C and the “change of melting temperature, mutant” value amounted to 1.5 °C.
In the same order, the values of S42A are 49.5 °C and -1.5 °C.
For L3S, in that order: 50.5 °C and -0.5 °C.
For A95H, in that order: 50.5 °C and -0.5 °C.
Regarding E123S, the Tm is 51 °C and the “change of melting temperature, mutant” value came out at 0 °C.
For V105I, in that order: 50 °C and -1 °C.
For A200P, in that order: 50.5 °C and -0.5 °C.
For D100T, in that order: 51 °C and 0 °C.
E139H: the Tm came to 61.5 °C and the “change of melting temperature, mutant” value was determined as 10.5 °C.
With E139Q, the Tm was 58.5 °C and the “change of melting temperature, mutant” value turned out to be 7.5 °C.
For G229T, in that order: 51.5 °C and 0.5 °C.
In the same order, the values of G229S are 52 °C and 1 °C.
For G229Q, in that order: 54 °C and 3 °C.
Take G229D: the Tm came out at 51.5 °C and the “change of melting temperature, mutant” value was determined as 0.5 °C.
In the same order, the values of G229E are 51.5 °C and 0.5 °C.
For G229R, in that order: 51.5 °C and 0.5 °C.
In the same order, the values of G229N are 51.5 °C and 0.5 °C.
With D166K, the melting temperature (Tm) stood at 53.5 °C and the “change of melting temperature, mutant” value is 2.5 °C.
For D166N, in that order: 53 °C and 2 °C.
On to T264Q, for which the Tm was determined as 50 °C and the “change of melting temperature, mutant” value is -1 °C.
As to A5C A185C, the Tm is 56 °C and 55.5 °C; the “change of melting temperature, mutant” value is 5 °C and 6.5 °C.
On to D147L, for which the Tm was 65 °C and the “change of melting temperature, mutant” value was 14 °C.
For A196C A200C, the Tm was 48.5 °C and 46 °C; the “change of melting temperature, mutant” value was -2.5 °C and -3 °C and -0.5 °C.
For V220M, the Tm was 61 °C and the “change of melting temperature, mutant” value was determined as 10 °C.
In the same order, the values of R225L are 51.5 °C and 0.5 °C.
